The values that follow come from paper PMC6138639, “The ZZ-type zinc finger of ZZZ3 modulates the ATAC complex-mediated histone acetylation and gene activation” (Nature Communications, 2018).

One may read the Kd as the concentration at which binding is half-saturated. Read a low Kd as a tighter complex.

For experiment [1], the target named is T1, H3K4ac peptide of the tryptophan fluorescence and NMR titration experiments.
T1 chain: ARTKQTAR
Kind of experiment: tryptophan fluorescence. The following applies: chain shown with the change; H3K4ac (1–12) peptide; triplicates.

In experiment [2] the target is T2, unmodified H3 peptide of the tryptophan fluorescence and NMR titration experiments.
T2 chain: ARTKQTARKSTG
Kind of experiment: tryptophan fluorescence. The following applies: chain shown with the change; H3 (1–12) peptide; triplicates.

B1: ZZZ3 ZZ domain (aa 800–903), GST cleaved, Q8IYH5 F821A (protein)
chain: KLKKQKLQQMQAESGFVQHVGAKCDNCGIEPIQGVRWHCQDCPPEMSLDFCDSCSDCLHETDIHKEDHQLEPIYRSETFLDRDYCVSQGTSYNYLDPNYFPANR
In the case of B1, the results for the Kd in experiment [1] and in experiment [2] were 294 µM and 271 µM, respectively.
